Earlier results as cited in publication PMC6780499, “Characterization, Recombinant Production and Structure-Function Analysis of NvCI, A Picomolar Metallocarboxypeptidase Inhibitor from the Marine Snail Nerita versicolor” (Marine Drugs, 2019).

Columns and labels:
[1] = biological target: T1, bCPA1 (Bos taurus, UniProt P00730); settings: ref Arolas et al., 2005 [12]; cited from earlier work
T1 sequence (P00730 111-419): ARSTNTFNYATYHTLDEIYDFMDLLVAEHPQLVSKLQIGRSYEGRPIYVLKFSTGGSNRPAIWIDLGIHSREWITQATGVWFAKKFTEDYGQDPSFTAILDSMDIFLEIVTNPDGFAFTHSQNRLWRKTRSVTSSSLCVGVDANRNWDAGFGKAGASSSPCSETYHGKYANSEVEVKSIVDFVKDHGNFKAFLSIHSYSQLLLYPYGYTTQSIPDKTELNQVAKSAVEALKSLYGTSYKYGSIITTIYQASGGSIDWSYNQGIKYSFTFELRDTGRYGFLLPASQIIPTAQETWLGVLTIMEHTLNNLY
Text: (§1) Table 2 Ki values of various proteinaceous metallocarboxypeptidases (MCPs) inhibitors. | column: Ki (nM) / rPCI (a); Ki (nM) / rTCI (b); Ki (nM) / rLCI (c); Ki (nM) / rACI (d); Ki (nM) / rhuman latexin (e)

[2] = biological target: T2, hCPA1 (Homo sapiens, UniProt P15085); settings: ref Arolas et al., 2005 [12]; cited from earlier work
T2 sequence (P15085 111-419): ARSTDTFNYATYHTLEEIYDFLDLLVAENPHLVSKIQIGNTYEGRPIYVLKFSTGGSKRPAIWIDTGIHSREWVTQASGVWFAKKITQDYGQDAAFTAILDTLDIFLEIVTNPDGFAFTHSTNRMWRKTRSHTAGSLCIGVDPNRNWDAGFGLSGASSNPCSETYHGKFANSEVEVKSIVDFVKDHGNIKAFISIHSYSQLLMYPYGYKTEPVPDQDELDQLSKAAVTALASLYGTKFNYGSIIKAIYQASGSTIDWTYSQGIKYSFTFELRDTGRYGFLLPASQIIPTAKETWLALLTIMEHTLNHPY
Text: as §1

[3] = biological target: T3, hCPA2 (Homo sapiens, UniProt P48052); settings: ref Arolas et al., 2005 [12]; cited from earlier work
T3 sequence (P48052 115-419): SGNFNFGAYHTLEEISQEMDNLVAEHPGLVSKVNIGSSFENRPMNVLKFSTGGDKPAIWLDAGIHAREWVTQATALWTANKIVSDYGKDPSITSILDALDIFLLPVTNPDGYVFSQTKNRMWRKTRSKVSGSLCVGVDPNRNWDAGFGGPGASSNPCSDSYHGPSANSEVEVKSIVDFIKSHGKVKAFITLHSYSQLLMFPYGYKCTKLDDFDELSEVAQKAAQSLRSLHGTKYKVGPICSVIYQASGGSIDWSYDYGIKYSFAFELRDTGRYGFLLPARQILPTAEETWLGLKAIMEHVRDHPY
Text: as §1

[4] = biological target: T4, hCPA4 (Homo sapiens, UniProt Q9UI42); settings: ref Tanco et al., 2010 [22]; cited from earlier work
T4 sequence (Q9UI42 114-421): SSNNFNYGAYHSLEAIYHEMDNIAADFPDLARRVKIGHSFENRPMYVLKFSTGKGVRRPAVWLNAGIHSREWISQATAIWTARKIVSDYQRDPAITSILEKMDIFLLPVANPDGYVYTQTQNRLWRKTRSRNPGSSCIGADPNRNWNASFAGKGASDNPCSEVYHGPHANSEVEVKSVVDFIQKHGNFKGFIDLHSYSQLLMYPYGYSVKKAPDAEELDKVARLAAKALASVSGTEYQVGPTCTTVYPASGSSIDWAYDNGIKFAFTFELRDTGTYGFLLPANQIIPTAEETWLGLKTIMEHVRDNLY
Text: as §1

[5] = biological target: T5, pCPB (Sus scrofa, UniProt P09955); settings: ref Arolas et al., 2005 [12]; cited from earlier work
T5 sequence (P09955 111-416): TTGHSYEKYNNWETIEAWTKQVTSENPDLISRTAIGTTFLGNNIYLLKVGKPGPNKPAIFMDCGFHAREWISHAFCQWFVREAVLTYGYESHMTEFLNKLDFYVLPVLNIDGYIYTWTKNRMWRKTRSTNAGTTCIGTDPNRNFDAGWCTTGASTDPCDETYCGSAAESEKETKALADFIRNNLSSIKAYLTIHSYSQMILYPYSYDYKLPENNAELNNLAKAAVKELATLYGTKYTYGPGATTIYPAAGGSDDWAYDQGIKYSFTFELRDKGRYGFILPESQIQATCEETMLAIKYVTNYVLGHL
Text: Table 2 Ki values of various proteinaceous metallocarboxypeptidases (MCPs) inhibitors. | column: Ki (nM) / rPCI (a); Ki (nM) / rTCI (b); Ki (nM) / rLCI (c)

[6] = biological target: T6, hCPB (Homo sapiens, UniProt P15086); settings: ref Arolas et al., 2005 [12]; cited from earlier work
T6 sequence (P15086 111-417): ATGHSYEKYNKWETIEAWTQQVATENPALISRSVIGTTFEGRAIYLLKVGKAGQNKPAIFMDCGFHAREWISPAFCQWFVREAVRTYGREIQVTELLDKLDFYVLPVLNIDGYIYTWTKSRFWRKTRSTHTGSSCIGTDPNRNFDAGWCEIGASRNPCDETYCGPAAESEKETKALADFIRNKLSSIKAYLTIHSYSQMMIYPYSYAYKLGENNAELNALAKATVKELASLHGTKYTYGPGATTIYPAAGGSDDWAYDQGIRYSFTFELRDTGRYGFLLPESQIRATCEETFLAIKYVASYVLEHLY
Text: Table 2 Ki values of various proteinaceous metallocarboxypeptidases (MCPs) inhibitors. | column: Ki (nM) / rPCI (a); Ki (nM) / rTCI (b); Ki (nM) / rLCI (c); Ki (nM) / rhuman latexin (e)

[7] = biological target: T7, bTAFI (Bos taurus, UniProt Q2KIG3); settings: ref Arolas et al., 2005 [12]; cited from earlier work
T7 sequence (Q2KIG3 115-423): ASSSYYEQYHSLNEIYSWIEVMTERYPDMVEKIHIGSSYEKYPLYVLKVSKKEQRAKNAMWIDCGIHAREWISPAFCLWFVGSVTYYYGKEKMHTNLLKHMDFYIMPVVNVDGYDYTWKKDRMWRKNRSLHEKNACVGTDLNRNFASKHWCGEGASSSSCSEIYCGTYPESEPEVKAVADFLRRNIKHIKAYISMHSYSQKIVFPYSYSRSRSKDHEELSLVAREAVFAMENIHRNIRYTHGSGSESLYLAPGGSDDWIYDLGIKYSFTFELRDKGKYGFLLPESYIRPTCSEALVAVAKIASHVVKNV
Text: Table 2 Ki values of various proteinaceous metallocarboxypeptidases (MCPs) inhibitors. | column: Ki (nM) / rPCI (a); Ki (nM) / rTCI (b)

[8] = biological target: T8, hTAFI (Homo sapiens, UniProt Q96IY4); settings: ref Arolas et al., 2005 [12]; cited from earlier work
T8 sequence (Q96IY4 115-423): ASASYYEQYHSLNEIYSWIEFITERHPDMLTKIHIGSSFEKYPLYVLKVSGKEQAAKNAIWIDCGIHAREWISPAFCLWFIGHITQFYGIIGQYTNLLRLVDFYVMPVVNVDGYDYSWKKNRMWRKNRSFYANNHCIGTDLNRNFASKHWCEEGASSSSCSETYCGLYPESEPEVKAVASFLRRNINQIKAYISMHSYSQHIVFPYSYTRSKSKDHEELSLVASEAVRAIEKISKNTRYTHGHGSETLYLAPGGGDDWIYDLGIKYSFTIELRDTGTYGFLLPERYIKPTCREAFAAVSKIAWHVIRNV
Text: Table 2 Ki values of various proteinaceous metallocarboxypeptidases (MCPs) inhibitors. | column: Ki (nM) / rPCI (a); Ki (nM) / rTCI (b); Ki (nM) / rACI (d); Ki (nM) / rhuman latexin (e)

For “rPCI: recombinant proteinaceous carboxypeptidase inhibitor from potato (QQHADPICNKPCKTHDDCSGAWFCQACWNSARTCGPYVG; UniProt P01075 1-39, looked up) [reference compound]”, the Ki [1] is given as 1.6 ± 0.2 nM, the Ki [2] is given as 1.6 ± 0.3 nM and the Ki [3] is given as 8.8 ± 0.7 nM. For the same substance, the Ki [4] was 1.3 ± 0.1 nM, the Ki [5] was 7.2 ± 0.6 nM and the Ki [6] was 1.8 ± 0.3 nM. The Ki [7] was 2.5 ± 0.4 nM and the Ki [8] was 5.2 ± 0.5 nM.
